Measurements: PMC3835790, “Statistical Experimental Design Guided Optimization of a One-Pot Biphasic Multienzyme Total Synthesis of Amorpha-4,11-diene” (PLoS ONE, 2013)

Test system: CC(C)=CCC/C(C)=C/CC/C(C)=C/CO[P@@](=O)(O)OP(=O)(O)O
Assay: purified protein
Details: 100 mM Tris/HCl pH 7.4, 30°C, substrate not printed in the table row, FPP from the pathway

amorpha-4,11-diene synthase (Ads) (Artemisia annua), sequence (chain, as listed by the source): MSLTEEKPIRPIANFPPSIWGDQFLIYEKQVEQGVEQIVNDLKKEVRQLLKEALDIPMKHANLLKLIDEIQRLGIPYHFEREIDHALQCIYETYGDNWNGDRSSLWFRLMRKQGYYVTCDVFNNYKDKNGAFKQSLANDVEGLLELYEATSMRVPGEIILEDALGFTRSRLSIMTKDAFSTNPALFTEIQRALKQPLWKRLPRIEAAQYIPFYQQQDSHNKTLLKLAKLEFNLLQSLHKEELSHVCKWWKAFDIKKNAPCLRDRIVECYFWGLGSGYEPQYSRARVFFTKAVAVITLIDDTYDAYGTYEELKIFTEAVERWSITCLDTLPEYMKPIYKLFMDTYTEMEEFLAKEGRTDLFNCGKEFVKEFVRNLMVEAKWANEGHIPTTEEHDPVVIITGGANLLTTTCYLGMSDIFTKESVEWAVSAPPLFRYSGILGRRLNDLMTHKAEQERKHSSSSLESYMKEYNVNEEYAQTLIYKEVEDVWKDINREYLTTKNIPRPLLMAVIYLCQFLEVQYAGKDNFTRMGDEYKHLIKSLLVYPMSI

Substance “amorpha-4,11-diene synthase (Ads) (Artemisia annua)” has a Km of 43.72 ± 10.4 µM and a kcat of 0.05 s⁻¹.
